Test system: REV-ERBβ LBD / NCoR RID
Assay: Chemical cross-linking mass spectrometry (XL-MS)
Format: binding
Conditions: apo LBD and heme-bound LBD ± RID; DSSO
Experimental: Apo or heme-bound REV-ERBβ LBD and NCoR RID protein samples were cross-linked in Hepes gel filtration buffer [25 mM Hepes (pH 7.5) at room temperature, 50 mM NaCl, and 0.5 mM TCEP]. Non–cross-linked negative controls were generated using the same procedure without the addition of DSSO (Thermo Fisher Scientific). Samples included 4 μM apo LBD with or without 2 μM RID and 4 μM heme-bound LBD with or without 2 μM RID; complexes were preincubated 1 hour on ice. Reactions were initiated by spiking DSSO in DMSO at a final concentration of 600 μM in 50-μl solutions. The final molar ratio of cross-linker:protein was 100:1. The reactions were incubated at 25°C for 45 min before being quenched by the addition of tris (pH 8.0) to a final concentration of 50 mM. Each cross-link reaction was done in triplicate, and the reaction replicates were pooled after quenching. Samples (10 μl) were loaded for SDS-PAGE analysis with Coomassie staining to confirm the presence of cross-linked protein. The remaining cross-linked and non–cross-linked samples were then acetone-precipitated at −20°C overnight, and the protein was pelleted by centrifugation at 16,000 relative centrifugal force (rcf) for 5 min at 4°C. After decanting, the pellets were dried for 15 min at room temperature before being resuspended in 12.5 μl of resuspension buffer [50 mM ammonium bicarbonate and 8 M urea (pH 8.0)]. […]

B1: WT RID: mouse NCoR RID (residues 1942 to 2208 in the X50 splice variant) (protein, UniProt Q60974 1942-2208, looked up, fragment)
chain: TITAANFIDVIITRQIASDKDARERGSQSSDSSSSLSSHRYETASDAIEVISPASSPAPPQEKPQAYQPDMVKANQAENESTRQYEGPLHHYRSQQESPSPQQQPPLPPSSQSEGMGQVPRTHRLITLADHICQIITQDFARNQVPSQASTSTFQTSPSALSSTPVRTKTSSRYSPESQSQTVLHPRPGPRVSPENLVDKSRGSRPGKSPERSHIPSEPYEPISPPQGPAVHEKQDSMLLLSQRGVDPAEQRSDSRSPGSISYLPSF
modifications: X50 splice variant
- effect of RID on LBD-LBD cross-links: enhanced LBD-LBD cross-links

Source: publication PMC7840129, “Structural basis for heme-dependent NCoR binding to the transcriptional repressor REV-ERBβ” (Science Advances, 2021)
